From patent US8299023 (Hoffmann-La Roche, dated 2012)
Numbered stars: 1 amine (or outer) side, 2 acyl side, 3 side chain; on linkers, the order of the positions; unused ones are H or OH. Square brackets hold non-standard residues; d marks the D form. Primed or numbered codes have the meaning given here. HomPqa = 3-hydroxy-2-(4-oxo-6-piperazin-1-yl-4H-quinazolin-3-yl)-propionic acid, O=C(C(CO[*:3])n1cnc2ccc(N3CCN([*:1])CC3)cc2c1=O)[*:2]; Pdp = (6-oxo-2-piperazin-1-yl-1,6-dihydropurin-7-yl)-acetic acid, O=C(Cn1cnc2nc(N3CCN([*:1])CC3)[nH]c(=O)c21)[*:2]; Dqa = (6-[1,4]diazepan-1-yl-4-oxo-4H-quinazolin-3-yl)-acetic acid, O=C(Cn1cnc2ccc(N3CCCN([*:1])CC3)cc2c1=O)[*:2]; Pipa = (1-oxo-7-piperazin-1-yl-1H-isoquinolin-2-yl)-acetic acid, O=C(Cn1ccc2ccc(N3CCN([*:1])CC3)cc2c1=O)[*:2]; Appa = (6-Amino-2-piperazin-1-yl-9H-purin-8-yl)-acetic acid, Nc1nc(N2CCN([*:1])CC2)nc2[nH]c(CC(=O)[*:2])nc12; Cip = (5-Piperazin-1-yl-indole-1-yl)-acetic acid, O=C(Cn1ccc2cc(N3CCN([*:1])CC3)ccc21)[*:2]; Cba′ = (4-Aminomethyl-biphenyl-3-yl)-acetic acid, O=C(Cc1cc(-c2ccccc2)ccc1CN[*:1])[*:2]; Bqa = ((1R,4S)-6-2-Aza-bicyclo[2.2.1]hept-5-yl-4-oxo-4H-quinazolin)-acetic acid; Ppa = (2-piperazin-1-yl-purin-7-yl)-acetic acid; NMeR = CN[C@@H](CCCNC(=N)N)C(=O)O

Legend:
Assay in all cases: cell-based or functional assay
human NPY2 receptor = biological target: T1, human NPY2 receptor (human, UniProt P49146 1-381)
T1 sequence (looked up): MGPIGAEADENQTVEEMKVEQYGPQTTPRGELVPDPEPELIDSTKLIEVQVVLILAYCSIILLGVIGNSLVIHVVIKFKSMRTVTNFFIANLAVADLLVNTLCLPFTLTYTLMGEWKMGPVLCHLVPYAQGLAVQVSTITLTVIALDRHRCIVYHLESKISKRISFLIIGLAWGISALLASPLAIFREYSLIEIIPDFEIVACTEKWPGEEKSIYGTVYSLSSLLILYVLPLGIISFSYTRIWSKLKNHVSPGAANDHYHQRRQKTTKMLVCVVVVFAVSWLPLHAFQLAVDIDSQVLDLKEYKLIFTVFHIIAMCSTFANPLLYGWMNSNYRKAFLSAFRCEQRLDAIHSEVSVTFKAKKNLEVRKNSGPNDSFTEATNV

Y1R = biological target: Y1R
Chain of Y1R (P25929 whole entry): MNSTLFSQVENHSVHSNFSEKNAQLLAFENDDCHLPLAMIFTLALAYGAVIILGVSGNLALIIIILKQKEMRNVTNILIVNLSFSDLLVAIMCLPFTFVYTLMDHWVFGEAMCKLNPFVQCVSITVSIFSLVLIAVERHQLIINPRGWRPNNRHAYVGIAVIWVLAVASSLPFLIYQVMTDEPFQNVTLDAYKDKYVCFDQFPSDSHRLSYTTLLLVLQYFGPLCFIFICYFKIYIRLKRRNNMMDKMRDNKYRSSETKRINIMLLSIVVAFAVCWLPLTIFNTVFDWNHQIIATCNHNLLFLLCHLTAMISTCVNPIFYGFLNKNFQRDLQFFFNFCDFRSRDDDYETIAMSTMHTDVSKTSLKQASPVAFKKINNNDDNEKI

Y4R = biological target: Y4R
Y5R = biological target: T2, Y5R
T2 sequence (Q15761 whole entry, species assumed, looked up): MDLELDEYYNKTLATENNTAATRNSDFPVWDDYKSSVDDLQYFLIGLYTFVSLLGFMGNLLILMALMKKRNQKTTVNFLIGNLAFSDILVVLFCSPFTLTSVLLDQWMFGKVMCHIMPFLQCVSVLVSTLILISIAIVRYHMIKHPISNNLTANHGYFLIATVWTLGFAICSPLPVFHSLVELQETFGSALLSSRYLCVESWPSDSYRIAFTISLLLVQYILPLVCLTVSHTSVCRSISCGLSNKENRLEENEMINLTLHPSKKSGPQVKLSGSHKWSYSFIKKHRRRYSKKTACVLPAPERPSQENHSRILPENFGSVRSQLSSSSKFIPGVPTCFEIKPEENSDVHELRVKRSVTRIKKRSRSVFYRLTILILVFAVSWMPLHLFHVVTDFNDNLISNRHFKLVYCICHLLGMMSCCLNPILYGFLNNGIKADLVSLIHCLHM

| Binder | Y2R EC50 (nM) FLIRR (Ca flux, FLIPR) (human NPY2 receptor) [nM] | Y2R EC50 (nM) cAMP (human NPY2 receptor) [nM] | Y1R EC50 (nM) FLIPR (Y1R) [nM] | Y4R EC50 (nM) FLIPR (Y4R) [nM] | Y5R EC50 (nM) FLIPR (Y5R) [nM] |
| --- | --- | --- | --- | --- | --- |
| Ac-IK[Cba′]RHYLNWVTRQ[NMeR]Y-NH2 [Ac-Ile-Lys-Cba-Arg-His-Tyr-Leu-Asn-Trp-Val-Thr-Arg-Gln-(NMe)Arg-Tyr-NH2] | 0.51 | 1.97 | > 30000 | > 30000 | > 30000 |
| Ac-IK[Cip]RHYLNWVTRQ[NMeR]Y-NH2 (SMILES CC[C@H](C)[C@H](NC(C)=O)C(=O)N[C@@H](CCCCN)C(=O)N1CCN(c2ccc3c(ccn3CC(=O)N[C@@H](CCCNC(=N)N)C(=O)N[C@@H](Cc3c[nH]cn3)C(=O)N[C@@H](Cc3ccc(O)cc3)C(=O)N[C@@H](CC(C)C)C(=O)N[C@@H](CC(N)=O)C(=O)N[C@@H](Cc3c[nH]c4ccccc34)C(=O)N[C@H](C(=O)N[C@H](C(=O)N[C@@H](CCCNC(=N)N)C(=O)N[C@@H](CCC(N)=O)C(=O)N(C)[C@@H](CCCNC(=N)N)C(=O)N[C@@H](Cc3ccc(O)cc3)C(N)=O)[C@@H](C)O)C(C)C)c2)CC1) [Ac-Ile-Lys-Cip-Arg-His-Tyr-Leu-Asn-Trp-Val-Thr-Arg-Gln-(NMe)Arg-Tyr-NH2] | 0.14 | 0.36 | > 30000 | > 30000 | 10700 |
| Ac-IK[Dqa]RHYLNWVTRQ[NMeR]Y-NH2 [Ac-Ile-Lys-Dqa-Arg-His-Tyr-Leu-Asn-Trp-Val-Thr-Arg-Gln-(NMe)Arg-Tyr-NH2] | 0.25 | 0.35 | > 9000 | > 9000 | 6030 |
| Ac-IK[Appa]RHYLNWVTRQ[NMeR]Y-NH2 [Ac-Ile-Lys-Appa-Arg-His-Tyr-Leu-Asn-Trp-Val-Thr-Arg-Gln-(NMe)Arg-Tyr-NH2] | 0.156 | 0.18 | > 5000 | > 5000 | 3300 |
| Ac-IK[Pdp]RHYLNWVTRQ[NMeR]Y-NH2 (SMILES CC[C@H](C)[C@H](NC(C)=O)C(=O)N[C@@H](CCCCN)C(=O)N1CCN(c2nc3ncn(CC(=O)N[C@@H](CCCNC(=N)N)C(=O)N[C@@H](Cc4c[nH]cn4)C(=O)N[C@@H](Cc4ccc(O)cc4)C(=O)N[C@@H](CC(C)C)C(=O)N[C@@H](CC(N)=O)C(=O)N[C@@H](Cc4c[nH]c5ccccc45)C(=O)N[C@H](C(=O)N[C@H](C(=O)N[C@@H](CCCNC(=N)N)C(=O)N[C@@H](CCC(N)=O)C(=O)N(C)[C@@H](CCCNC(=N)N)C(=O)N[C@@H](Cc4ccc(O)cc4)C(N)=O)[C@@H](C)O)C(C)C)c3c(=O)[nH]2)CC1) [Ac-Ile-Lys-Pdp-Arg-His-Tyr-Leu-Asn-Trp-Val-Thr-Arg-Gln-(NMe)Arg-Tyr-NH2] | 0.037 | 0.24 | > 9000 | > 9000 | > 9000 |
| Ac-IK[Ppa]RHYLNWVTRQ[NMeR]Y-NH2 [Ac-Ile-Lys-Ppa-Arg-His-Tyr-Leu-Asn-Trp-Val-Thr-Arg-Gln-(NMe)Arg-Tyr-NH2] | 0.45 | 0.12 | > 5000 | > 5000 | 1100 |
| Ac-IK[HomPqa]RHYLNWVTRQ[NMeR]Y-NH2 [Ac-Ile-Lys-HomPqa-Arg-His-Tyr-Leu-Asn-Trp-Val-Thr-Arg-Gln-(NMe)Arg-Tyr-NH2] | 0.6 | 4.35 | > 9000 | 2790 | 4940 |
| Ac-IK[Pipa]RHYLNWVTRQ[NMeR]Y-NH2 (SMILES CC[C@H](C)[C@H](NC(C)=O)C(=O)N[C@@H](CCCCN)C(=O)N1CCN(c2ccc3ccn(CC(=O)N[C@@H](CCCNC(=N)N)C(=O)N[C@@H](Cc4c[nH]cn4)C(=O)N[C@@H](Cc4ccc(O)cc4)C(=O)N[C@@H](CC(C)C)C(=O)N[C@@H](CC(N)=O)C(=O)N[C@@H](Cc4c[nH]c5ccccc45)C(=O)N[C@H](C(=O)N[C@H](C(=O)N[C@@H](CCCNC(=N)N)C(=O)N[C@@H](CCC(N)=O)C(=O)N(C)[C@@H](CCCNC(=N)N)C(=O)N[C@@H](Cc4ccc(O)cc4)C(N)=O)[C@@H](C)O)C(C)C)c(=O)c3c2)CC1) [Ac-Ile-Lys-Pipa-Arg-His-Tyr-Leu-Asn-Trp-Val-Thr-Arg-Gln-(NMe)Arg-Tyr-NH2] | 0.045 | 0.18 | > 5000 | > 5000 | 2340 |
| Ac-IK[Bqa]RHYLNWVTRQ[NMeR]Y-NH2 [Ac-Ile-Lys-Bqa-Arg-His-Tyr-Leu-Asn-Trp-Val-Thr-Arg-Gln-(NMe)Arg-Tyr-NH2] | 0.072 | 0.17 | > 5000 | > 5000 | 2870 |
